Laboratory results as given in paper PMC7039193 (The Journal of Cell Biology, 2019).

Target: GST-EVH1 domain of VASP (UniProt P50552 1-113)
Experiment: pull-down

GST-EVH1 domain of VASP, sequence (P50552 1-113): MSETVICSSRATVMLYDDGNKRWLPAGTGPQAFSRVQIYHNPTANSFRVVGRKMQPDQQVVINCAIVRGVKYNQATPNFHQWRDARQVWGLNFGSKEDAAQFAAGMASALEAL

B1: endogenous TRIM9 (mouse embryonic cortex) (natural protein, mouse (endogenous in embryonic cortex), UniProt Q8C7M3 1-817, looked up)
chain: MEEMEEELKCPVCGSFYREPIILPCSHNLCQACARNILVQTPESESPQSRRASGSGVSDYDYLDLDKMSLYSEADSGYGSYGGFASAPTTPCQKSPNGVRVFPPAMPPPPTHLSPALAPVPRNSCITCPQCHRSLILDDRGLRGFPKNRVLEGVIDRYQQSKAAALKCQLCEKAPKEATVMCEQCDVFYCDPCRLRCHPPRGPLAKHRLVPPAQGRVSRRLSPRKVSTCTDHELENHSMYCVQCKMPVCYQCLEEGKHSSHEVKALGAMWKLHKSQLSQALNGLSDRAKEAKEFLVQLRTMVQQIQENSVEFEACLVAQCDALIDALNRRKAQLLARVNKEHEHKLKVVRDQISHCTVKLRQTTGLMEYCLEVIKENDPSGFLQISDALIRRVHLTEDQWGKGTLTPRMTTDFDLSLDNSPLLQSIHQLDFVQVKASSPVPATPILQLEECCTHNNSATLSWKQPPLSTVAADGYILELDDGSGGQFREVYVGKETMCTVDGLHFNSTYNARVKAFNKTGVSPYSKTLVLQTSEAAGAHETKPMKDTDSEEQTLPFPVPSERLPLRRMSPFSSTLNLQPSFPGRSYFDFRSSPHQLSLHSSLQSLNAPGCNFETQSASYSQLVDIKKLLAVAWFAFDPGSAHSDIIFSNDNLTVTCSSYDDRVVLGKTGFSKGVHYWELTIDRYDNHPDPAFGVARIDVMKDMMLGKDDKAWAMYVDNNRSWFMHNNSHTNRTEGGITKGATIGVLLDLNRKTLTFFVNNEQQGPIAFENVEGLFFPAVSLNRNVQVSLWAPGLRACSGCYFKVCPGAVKSPQAPAP
With B1 the “fold change of TRIM9 precipitated, Trim67-/- lysate against WT lysate” value was about 2 fold.
